Data as given in patent publication US20160257744A1 (Genentech, published 2016).

Key:
[1] = biological target: T1, interleukin 13 (IL13) (UniProt P35225 35-146, limits assumed); assay: phage competition ELISA: Fab-phage incubated 2 h with serial dilutions of the antigen in solution, unbound phage captured on antigen-coated wells, anti-M13-HRP; IC50 = antigen concentration inhibiting 50% of phage binding
Experimental: (§1) Fab displaying phage was first incubated with serial dilutions of the respective antigens in solution for 2 h, unbound phage was then briefly captured by antigen coated ELISA wells and detected with anti-M13 HRP conjugate. The concentration of antigen inhibiting 50% of phage binding to antigen coated well is calculated as IC₅₀. NB denotes no detectable binding of phage clone directly to the antigens coated wells.

[2] = biological target: T2, interleukin 4 (IL4) (UniProt P05112 25-153); assay: as above
T2 sequence (looked up): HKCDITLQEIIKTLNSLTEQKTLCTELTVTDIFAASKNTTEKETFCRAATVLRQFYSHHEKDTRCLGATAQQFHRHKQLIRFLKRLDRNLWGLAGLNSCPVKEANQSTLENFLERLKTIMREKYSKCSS
Experimental: as §1

[3] = biological target: T3, interleukin 5 (IL5) (human, UniProt P05113 20-134); assay: phage ELISA: direct binding of the phage clone to antigen-coated wells (NB = no detectable binding)
T3 construct: also called human IL5 (R&D Systems)
T3 sequence (looked up): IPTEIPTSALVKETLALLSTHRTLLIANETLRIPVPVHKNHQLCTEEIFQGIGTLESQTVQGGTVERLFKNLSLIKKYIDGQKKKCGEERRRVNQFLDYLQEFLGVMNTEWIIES

[4] = biological target: T3, interleukin 5 (IL5); assay: ELISA: human IgG1 at 250 nM on protein-coated wells, anti-Fc-HRP
[5] = biological target: T4, BSA (bovine, UniProt P02769); assay: as above
T4 construct: negative control protein; also called irrelevant protein coated on ELISA wells
T4 sequence (P02769 25-607 limits assumed): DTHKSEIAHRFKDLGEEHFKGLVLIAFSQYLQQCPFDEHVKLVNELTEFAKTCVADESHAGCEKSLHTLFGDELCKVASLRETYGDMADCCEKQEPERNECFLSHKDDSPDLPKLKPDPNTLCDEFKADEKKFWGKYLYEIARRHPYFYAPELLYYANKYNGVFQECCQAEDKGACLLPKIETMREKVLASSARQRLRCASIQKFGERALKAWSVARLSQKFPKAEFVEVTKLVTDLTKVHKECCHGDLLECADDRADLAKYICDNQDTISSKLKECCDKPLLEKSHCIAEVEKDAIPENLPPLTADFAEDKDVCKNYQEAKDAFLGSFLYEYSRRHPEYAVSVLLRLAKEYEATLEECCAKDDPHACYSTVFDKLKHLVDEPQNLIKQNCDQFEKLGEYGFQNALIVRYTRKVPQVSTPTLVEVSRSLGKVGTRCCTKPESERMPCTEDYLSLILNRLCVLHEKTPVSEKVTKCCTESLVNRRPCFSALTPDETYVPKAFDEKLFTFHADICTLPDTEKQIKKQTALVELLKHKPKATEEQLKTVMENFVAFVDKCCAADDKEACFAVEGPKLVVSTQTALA

[6] = biological target: T5, HER2 ECD; assay: as above
T5 construct: one of the irrelevant proteins; also called irrelevant protein coated on ELISA wells

[7] = biological target: T1, interleukin 13 (IL13); assay: as above
[8] = biological target: T3, interleukin 5 (IL5); assay: phage competition ELISA (phage IC50), soluble IL5 against IL5-coated wells
Experimental: as §1
(§2) The relative affinity of each clone was assessed by phage IC₅₀ as above.

[9] = biological target: T3, interleukin 5 (IL5); assay: phage competition ELISA: Fab-phage incubated 2 h with serial dilutions of the antigen in solution, unbound phage captured on antigen-coated wells, anti-M13-HRP; IC50 = antigen concentration inhibiting 50% of phage binding
Experimental: as §1

[10] = biological target: T1, interleukin 13 (IL13); assay: phage ELISA: direct binding of the phage clone to antigen-coated wells (NB = no detectable binding)
[11] = biological target: T2, interleukin 4 (IL4); assay: phage competition ELISA (phage IC50), soluble IL4 against IL4-coated wells
Experimental: as §1, §2

[12] = biological target: T3, interleukin 5 (IL5); assay: SPR, Fab over immobilized IL5
[13] = biological target: T3, interleukin 5 (IL5); assay: SPR (Biacore), Fab over CM5 chip with immobilized human IL5, 25 °C
[14] = biological target: T2, interleukin 4 (IL4); assay: SPR (Biacore), Fab over CM5 chip with immobilized IL4, 25 °C

T1 sequence (P35225 35-146 limits assumed): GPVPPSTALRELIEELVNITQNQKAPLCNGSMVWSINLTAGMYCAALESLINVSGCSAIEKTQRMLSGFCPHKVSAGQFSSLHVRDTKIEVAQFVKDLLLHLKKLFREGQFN

B1: F2, anti-IL4/IL13 dual specific variant of hu19C11, Fab displayed on phage (Fab, V domains shown)
VH: EVQLVQSGAEVKKPGASVKVSCKASGYTFTDYSMHWVRQAPGQGLEWIGIIFYTGHTYYADDFKGRVTITRDTSTSTAYLELSSLRSEDTAVYYCARGGIFYGMDYWGQGTLVTVSS
VL: DIQMTQSPSSLSASVGDRVTITCKASQSVINDAAWYQQKPGKAPKLLIYYTSHRYTGVPSRFSGSGSGTDFTLTISSLQEDFATYYCQQDYTSPWTFGQGTKVEIKR
In the case of B1, the IC50 [1] is reported as roughly 1000 nM, the IC50 [2] is reported as 14.8 nM and the binding result [3] is reported as “no binding”.

B2: F2 as human IgG1 (antibody, V domains shown)
VH: EVQLVQSGAEVKKPGASVKVSCKASGYTFTDYSMHWVRQAPGQGLEWIGIIFYTGHTYYADDFKGRVTITRDTSTSTAYLELSSLRSEDTAVYYCARGGIFYGMDYWGQGTLVTVSS
VL: DIQMTQSPSSLSASVGDRVTITCKASQSVINDAAWYQQKPGKAPKLLIYYTSHRYTGVPSRFSGSGSGTDFTLTISSLQEDFATYYCQQDYTSPWTFGQGTKVEIKR
B2: no binding (tested: 250 nM) [4]; no binding (tested: 250 nM) [5]; no binding (tested: 250 nM) [6].

B3: E7 as human IgG1 (antibody, V domains shown)
VH: EVQLVQSGAEVKKPGASVKVSCKASGYTFTDYFIHWVRQAPGQGLEWIAGIVYDATGFTTYADDFKGRVTITRDTSTSTAYLELSSLRSEDTAVYYCARGGIFYGMDYWGQGTLVTVSS
VL: DIQMTQSPSSLSASVGDRVTITCKASQSVINDAAWYQQKPGKAPKLLIYYTSHRYTGVPSRFSGSGSGTDFTLTISSLQEDFATYYCQQDYTSPWTFGQGTKVEIKR
notes: also called IL4/IL5 dual specific antibody E7
B3: no binding (tested: 250 nM) [7]; no binding (tested: 250 nM) [5]; no binding (tested: 250 nM) [6].

B4: E7, anti-IL4/IL5 dual specific variant of hu19C11, Fab displayed on phage (Fab, V domains shown)
VH: EVQLVQSGAEVKKPGASVKVSCKASGYTFTDYFIHWVRQAPGQGLEWIAGIVYDATGFTTYADDFKGRVTITRDTSTSTAYLELSSLRSEDTAVYYCARGGIFYGMDYWGQGTLVTVSS
VL: DIQMTQSPSSLSASVGDRVTITCKASQSVINDAAWYQQKPGKAPKLLIYYTSHRYTGVPSRFSGSGSGTDFTLTISSLQEDFATYYCQQDYTSPWTFGQGTKVEIKR
notes: also called clone E7
B4 was tested, and the IC50 [8] was roughly 1000 nM, the IC50 [9] was roughly 1000 nM and the binding result [10] was “no binding”.

B5: 1C.60 (Fab, V domains shown)
VH: EVQLVQSGAEVKKPGASVKVSCKASGYTFTDYFIHWVRQAPGQGLEWIAGIVYDATGFTVYADDFKGRVTITRDTSTSTAYLELSSLRSEDTAVYYCARGGIFYGMDYWGQGTLVTVSS
VL: DIQMTQSPSSLSASVGDRVTITCKASQSVINDAAWYQQKPGKAPKLLIYYTSHRYTGVPSRFSGSGSGTDFTLTISSLQEDFATYYCQQDYKHPWTFGQGTKVEIKR
notes: same clone as m17 and m19, here in the phage format
B5 gave an IC50 [8] of 3.67 nM and an IC50 [11] of 1.1 nM.

B6: 1C60, affinity-matured variant of E7, purified as Fab (Fab, V domains shown)
VH: EVQLVQSGAEVKKPGASVKVSCKASGYTFTDYFIHWVRQAPGQGLEWIAGIVYDATGFTVYADDFKGRVTITRDTSTSTAYLELSSLRSEDTAVYYCARGGIFYGMDYWGQGTLVTVSS
VL: DIQMTQSPSSLSASVGDRVTITCKASQSVINDAAWYQQKPGKAPKLLIYYTSHRYTGVPSRFSGSGSGTDFTLTISSLQEDFATYYCQQDYKHPWTFGQGTKVEIKR
notes: Purified Fab for SPR
In the case of B6, the Kd [12] is reported as 44.4 nM, the “fold improvement of affinity toward IL5 against E7” value [12] is reported as 20 fold and the koff [13] is reported as 0.000552 s⁻¹. The kon [13] was 12400 M⁻¹ s⁻¹, the Kd [14] was 4.9 nM and the koff [14] was 0.00342 s⁻¹. The kon [14] was 697000 M⁻¹ s⁻¹.

B7: F1, anti-IL4/IL13 dual specific variant of hu19C11, Fab displayed on phage (Fab, V domains shown)
VH: EVQLVQSGAEVKKPGASVKVSCKASGYTFTDYSMHWVRQAPGQGLEWIGVIFQSGATYYADDFKGRVTITRDTSTSTAYLELSSLRSEDTAVYYCARGGIFYGMDYWGQGTLVTVSS
VL: DIQMTQSPSSLSASVGDRVTITCKASQSVINDAAWYQQKPGKAPKLLIYYTSHRYTGVPSRFSGSGSGTDFTLTISSLQEDFATYYCQQDYTSPWTFGQGTKVEIKR
For B7, the IC50 [1] was roughly 1000 nM, the IC50 [2] was 22.3 nM and the binding result [3] was “no binding”.

B8: 1C36, affinity-matured variant of E7, purified as Fab (Fab, V domains shown)
VH: EVQLVQSGAEVKKPGASVKVSCKASGYTFTDYFIHWVRQAPGQGLEWIGGIVYDATGFTTYAEEFKGRVTITRDTSTSTAYLELSSLRSEDTAVYYCARGGIFYGMDYWGQGTLVTVSS
VL: DIQMTQSPSSLSASVGDRVTITCKASQSVINDAAWYQQKPGKAPKLLIYYTSHRYTGVPSRFSGSGSGTDFTLTISSLQEDFATYYCQQDYTHPWTFGQGTKVEIKR
notes: Purified Fab for SPR
B8 was tested, and the Kd [12] was 24.1 nM, the “fold improvement of affinity toward IL5 against E7” value [12] was 37 fold and the koff [13] was 0.000221 s⁻¹. For the same binder, the kon [13] was 9180 M⁻¹ s⁻¹, the Kd [14] was 3.5 nM and the koff [14] was 0.00197 s⁻¹. It also gave a kon [14] of 557000 M⁻¹ s⁻¹.

B9: 1C.36 (Fab, V domains shown)
VH: EVQLVQSGAEVKKPGASVKVSCKASGYTFTDYFIHWVRQAPGQGLEWIGGIVYDATGFTTYAEEFKGRVTITRDTSTSTAYLELSSLRSEDTAVYYCARGGIFYGMDYWGQGTLVTVSS
VL: DIQMTQSPSSLSASVGDRVTITCKASQSVINDAAWYQQKPGKAPKLLIYYTSHRYTGVPSRFSGSGSGTDFTLTISSLQEDFATYYCQQDYTHPWTFGQGTKVEIKR
notes: same clone as m16 and m18, here in the phage format
Binder B9 has an IC50 [8] of 0.9 nM and an IC50 [11] of 2.1 nM.

B10: B1, anti-IL4/IL5 dual specific variant of hu19C11, Fab displayed on phage (Fab, V domains shown)
VH: EVQLVQSGAEVKKPGASVKVSCKASGYTFTDYLMHWVRQAPGQGLEWIAVIVSITGRTYYADDFKGRVTITRDTSTSTAYLELSSLRSEDTAVYYCARGGIFYGMDYWGQGTLVTVSS
VL: DIQMTQSPSSLSASVGDRVTITCKASQSVINDAAWYQQKPGKAPKLLIYYTSHRYTGVPSRFSGSGSGTDFTLTISSLQEDFATYYCQQDYTPFPLTFGQGTKVEIKR
notes: also called clone B1
For B10, the IC50 [9] was roughly 1000 nM, the IC50 [2] was roughly 1000 nM and the binding result [10] was “no binding”.

B11: B1 as human IgG1 (antibody, V domains shown)
VH: EVQLVQSGAEVKKPGASVKVSCKASGYTFTDYLMHWVRQAPGQGLEWIAVIVSITGRTYYADDFKGRVTITRDTSTSTAYLELSSLRSEDTAVYYCARGGIFYGMDYWGQGTLVTVSS
VL: DIQMTQSPSSLSASVGDRVTITCKASQSVINDAAWYQQKPGKAPKLLIYYTSHRYTGVPSRFSGSGSGTDFTLTISSLQEDFATYYCQQDYTPFPLTFGQGTKVEIKR
notes: also called IL4/IL5 dual specific antibody B1
B11: no binding (tested: 250 nM) [7]; no binding (tested: 250 nM) [5]; no binding (tested: 250 nM) [6].

B12: humanized antibody 19C11 (hu19C11) as IgG (antibody, V domains shown)
VH: EVQLVQSGAEVKKPGASVKVSCKASGYTFTDYSMHWVRQAPGQGLEWIVWINTETGEPTYADDFKGRVTITRDTSTSTAYLELSSLRSEDTAVYYCARGGIFYGMDYWGQGTLVTVSS
VL: DIQMTQSPSSLSASVGDRVTITCKASQSVINDAAWYQQKPGKAPKLLIYYTSHRYTGVPSRFSGSGSGTDFTLTISSLQEDFATYYCQQDYTSPWTFGQGTKVEIKR
notes: IgG; also called the antibody as IgG
B12: no binding (tested: 250 nM) [7]; no binding (tested: 250 nM) [4]; no binding (tested: 250 nM) [5]. B12: no binding (tested: 250 nM) [6].
